Data reported in patent publication US20220389400.

Target: amyloid β (UniProt P05067)
Chain of UniProt P05067 (P05067 whole entry, looked up): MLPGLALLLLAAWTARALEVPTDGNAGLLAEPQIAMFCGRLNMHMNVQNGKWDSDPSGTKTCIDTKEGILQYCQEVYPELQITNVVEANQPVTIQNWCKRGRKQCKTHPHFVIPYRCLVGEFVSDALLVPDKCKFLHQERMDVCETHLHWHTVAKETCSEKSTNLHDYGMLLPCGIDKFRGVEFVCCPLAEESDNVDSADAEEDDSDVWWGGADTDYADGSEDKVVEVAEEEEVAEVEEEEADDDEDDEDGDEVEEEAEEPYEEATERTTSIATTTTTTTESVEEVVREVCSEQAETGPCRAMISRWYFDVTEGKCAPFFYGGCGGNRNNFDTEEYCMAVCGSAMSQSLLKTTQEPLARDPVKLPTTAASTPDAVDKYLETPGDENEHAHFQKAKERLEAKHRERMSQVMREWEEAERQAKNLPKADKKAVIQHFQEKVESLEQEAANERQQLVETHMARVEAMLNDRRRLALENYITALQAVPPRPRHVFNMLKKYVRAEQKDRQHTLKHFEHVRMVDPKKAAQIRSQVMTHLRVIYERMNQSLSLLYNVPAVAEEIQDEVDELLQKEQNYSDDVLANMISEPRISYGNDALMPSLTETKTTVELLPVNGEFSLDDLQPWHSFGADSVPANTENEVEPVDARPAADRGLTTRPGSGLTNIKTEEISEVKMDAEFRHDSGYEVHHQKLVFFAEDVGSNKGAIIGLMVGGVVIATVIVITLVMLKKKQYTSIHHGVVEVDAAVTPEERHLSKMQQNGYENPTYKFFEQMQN

Row | Substance | activity to degrade amyloid β (Western blot) | protease activity; amount of amyloid β by Western blot (4G8)
1 | NIaΔ20 (20 amino acids removed from the C-terminus) | showed activity similar to normal NIa | 
2 | NIaΔ24 (24 amino acids removed from the C-terminus) | showed activity similar to normal NIa | 
3 | NIaΔ28 (28 amino acids removed from the C-terminus) | showed significantly reduced activity | 
4 | TuMV-derived NIa protease |  | amyloid β disappeared after treatment with NIa and its fragment for 1 hour
